According to publication PMC5051949, “Mechanism of Rifampicin Inactivation in Nocardia farcinica” (PLoS ONE, 2016):

Assays:
[1] = system: NC(=O)C1=CN([C@@H]2O[C@H](COP(=O)(O)OP(=O)(O)OC[C@H]3O[C@@H](n4cnc5c(N)ncnc54)[C@H](O)[C@@H]3O)[C@@H](O)[C@H]2O)C=CC1; assay: steady-state oxygen consumption (oxygraph); format: biochemical, Nocardia farcinica; conditions: 30 μM Rif, 100 mM sodium phosphate pH 7.5, 25°C, varied: cofactor
Text: (§1) steady-state oxygen consumption (oxygraph) on RifMO (rifampicin monooxygenase)

[2] = system: CO[C@H]1/C=C/O[C@@]2(C)Oc3c(C)c(O)c4c(O)c(c(/C=N/N5CCN(C)CC5)c(O)c4c3C2=O)NC(=O)/C(C)=C\C=C\[C@H](C)[C@H](O)[C@@H](C)[C@@H](O)[C@@H](C)[C@H](OC(C)=O)[C@@H]1C; assay: steady-state oxygen consumption (oxygraph); format: biochemical, Nocardia farcinica; conditions: 1 mM NADPH, 100 mM sodium phosphate pH 7.5, 25°C
Text: as §1

[3] = system: NC(=O)C1=CN([C@@H]2O[C@H](COP(=O)(O)OP(=O)(O)OC[C@H]3O[C@@H](n4cnc5c(N)ncnc54)[C@H](OP(=O)(O)O)[C@@H]3O)[C@@H](O)[C@H]2O)C=CC1; assay: steady-state oxygen consumption (oxygraph); format: biochemical, Nocardia farcinica; conditions: 30 μM Rif, 100 mM sodium phosphate pH 7.5, 25°C, varied: cofactor
Text: as §1

[4] = molecular target: T1, RifMO (rifampicin monooxygenase) (Nocardia farcinica, UniProt Q5YTV5); assay: flavin absorbance change at […] nm (spectral titration); format: binding
T1 construct: gene rox; full-length, codon optimized, pET15b N-terminal 6xHis tag cleaved with thrombin, expressed in E. coli
T1 sequence (Q5YTV5 whole entry): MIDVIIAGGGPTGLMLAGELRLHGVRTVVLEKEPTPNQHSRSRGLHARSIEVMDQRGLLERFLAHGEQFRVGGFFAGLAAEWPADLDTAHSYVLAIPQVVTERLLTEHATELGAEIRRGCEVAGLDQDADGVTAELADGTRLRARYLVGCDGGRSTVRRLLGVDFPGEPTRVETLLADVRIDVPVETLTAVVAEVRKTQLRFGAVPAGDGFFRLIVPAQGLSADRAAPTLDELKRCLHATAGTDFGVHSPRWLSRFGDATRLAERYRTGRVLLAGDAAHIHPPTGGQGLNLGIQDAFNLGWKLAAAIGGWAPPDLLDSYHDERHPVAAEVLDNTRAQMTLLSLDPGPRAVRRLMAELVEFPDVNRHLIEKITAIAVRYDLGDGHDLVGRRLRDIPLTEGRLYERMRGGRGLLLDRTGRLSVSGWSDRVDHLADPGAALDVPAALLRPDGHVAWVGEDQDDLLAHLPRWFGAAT

[5] = molecular target: T1, RifMO (rifampicin monooxygenase); assay: steady-state oxygen consumption (oxygraph); format: biochemical; conditions: substrate inhibition by NADPH; 30 μM Rif, 100 mM sodium phosphate pH 7.5, 25°C
Text: as §1

## RifMO (rifampicin monooxygenase) (Nocardia farcinica IFM 10152)
[1]
  Km: 266 ± 25 µM
  kcat: 3.3 ± 0.06 s⁻¹
  kcat/Km: 12600 ± 1000 M⁻¹ s⁻¹
[2]
  Km: 5.8 ± 0.88 µM
  kcat: 4 ± 0.16 s⁻¹
  kcat/Km: 700000 ± 81300 M⁻¹ s⁻¹
[3]
  Km: 90 ± 10 µM
  kcat: 4 ± 0.1 s⁻¹
  kcat/Km: 43100 ± 3700 M⁻¹ s⁻¹

## CO[C@H]1/C=C/O[C@@]2(C)Oc3c(C)c(O)c4c(O)c(c(/C=N/N5CCN(C)CC5)c(O)c4c3C2=O)NC(=O)/C(C)=C\C=C\[C@H](C)[C@H](O)[C@@H](C)[C@@H](O)[C@@H](C)[C@H](OC(C)=O)[C@@H]1C [Rif, rifampicin]
[4]
  Kd: 9.5 ± 2.5 µM

## NC(=O)C1=CN([C@@H]2O[C@H](COP(=O)(O)OP(=O)(O)OC[C@H]3O[C@@H](n4cnc5c(N)ncnc54)[C@H](OP(=O)(O)O)[C@@H]3O)[C@@H](O)[C@H]2O)C=CC1 [NADPH]
[5]
  KI: 33000 ± 4000 µM
